Experimental findings from article PMC8875297 are described below.

Like-named read-outs stand apart in the source and are kept apart here.

As to cyclin D1: MLN4924, the degradation_or_half_life entry (ubiquitination at K269) was “decreases”.

Turning to “cyclin D1: AMBRA1 depletion (siRNA, AMBRA1-/-, auxin-inducible degron)”, the degradation_or_half_life entry (ubiquitination at K269) was “decreases”. With cyclin D1: T286A, where the note is “phosphorylation at T286”, the degradation_or_half_life entry is listed as “decreases” and the other result is on record as “abolishes”.
